Data on one substance can be found in patent publication US8772012B2, “Xylose isomerase and use thereof” (Kabushiki Kaisha Toyota Chuo Kenkyusho, priority 2009, dated 2014).

As usually defined, the Km is the concentration of substrate that gives half-maximal velocity.

Values joined by “and” are separate entries in the source; they are usually repeats but may differ in a detail not shown here. Identical values can stand only once.

The series has as its system OC1OC[C@@H](O)[C@H](O)[C@H]1O. In words: cells, lysate or membranes named. To be noted: other: xylose 5 to 250 mM, pH 7.5, 30° C., 10 mM MgCl2, crude yeast extract, Hanes-Woolf plot.

Consider “Piromyces sp. E2 xylose isomerase PiXI-O (PiXI; codon optimized gene PiXI-O, SEQ ID NO: 46), expressed in yeast (Piromyces sp. E2)”, for which the Km was 40 mM and 39.87 ± 7.43 mM.
